From publication PMC8170675, “Allostery through DNA drives phenotype switching”
Residue numbers refer to the chain shown, from its start.

Legend:
ComK [1] = biological target: T1, ComK (Bacillus subtilis, UniProt P40396); assay: smFRET; details: amino-C6-dT/dA at dye sites, EMSA: 20 mM Tris pH 7.0, 50 mM L-Arg, 5 mM MgCl2, 150 mM KCl, 10 mM DTT, 0.001% Tween-20, 25 nM DNA, 20 min, smFRET: room temperature, 20 mM DTT
T1 sequence: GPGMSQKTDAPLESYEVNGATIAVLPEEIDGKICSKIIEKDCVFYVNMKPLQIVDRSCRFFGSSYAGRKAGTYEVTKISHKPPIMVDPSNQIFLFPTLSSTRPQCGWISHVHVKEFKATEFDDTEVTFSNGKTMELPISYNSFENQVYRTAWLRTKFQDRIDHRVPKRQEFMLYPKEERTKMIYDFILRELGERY

ComK [2] = biological target: T1, ComK; assay: smFRET; Hill n 2.28 ± 0.16; unit inferred; EMSA: 20 mM Tris pH 7.0, 50 mM L-Arg, 5 mM MgCl2, 150 mM KCl, 10 mM DTT, 0.001% Tween-20, 25 nM DNA, 20 min; smFRET: room temperature, 50 mM L-Arg, 20 mM DTT; details: protein: recombinant; tags: N-terminal His6-HRV3C tag removed; GPG remains at the N-terminus; chain copies: 4; label: AlexaFluor 488 / AlexaFluor 594; blunt
ComK [3] = biological target: T1, ComK; assay: cryo-EM; 50 mM L-Arg; two ComK per box; EMSA: 20 mM Tris pH 7.0, 50 mM L-Arg, 5 mM MgCl2, 150 mM KCl, 10 mM DTT, 0.001% Tween-20, 25 nM DNA, 20 min; smFRET: room temperature, 50 mM L-Arg, 20 mM DTT; details: protein: recombinant; tags: N-terminal His6-HRV3C tag removed; GPG remains at the N-terminus; chain copies: 4; blunt
ComK [4] = biological target: T1, ComK; assay: smFRET; Hill n 4.34 ± 0.32; unit inferred; EMSA: 20 mM Tris pH 7.0, 50 mM L-Arg, 5 mM MgCl2, 150 mM KCl, 10 mM DTT, 0.001% Tween-20, 25 nM DNA, 20 min; smFRET: room temperature, 50 mM L-Arg, 20 mM DTT; details: protein: recombinant; tags: N-terminal His6-HRV3C tag removed; GPG remains at the N-terminus; chain copies: 4; label: AlexaFluor 488 / AlexaFluor 594; blunt
ComK [5] = biological target: T1, ComK; assay: smFRET; Hill n 3.55 ± 0.12; unit not in visible table header, inferred from fit parameters; EMSA: 20 mM Tris pH 7.0, 50 mM L-Arg, 5 mM MgCl2, 150 mM KCl, 10 mM DTT, 0.001% Tween-20, 25 nM DNA, 20 min; smFRET: room temperature, 50 mM L-Arg, 20 mM DTT; details: protein: recombinant; tags: N-terminal His6-HRV3C tag removed; GPG remains at the N-terminus; chain copies: 4; label: AlexaFluor 488 / AlexaFluor 594; blunt
ComK [6] = biological target: T1, ComK; assay: smFRET; Hill n 2.97 ± 0.28; unit inferred; EMSA: 20 mM Tris pH 7.0, 50 mM L-Arg, 5 mM MgCl2, 150 mM KCl, 10 mM DTT, 0.001% Tween-20, 25 nM DNA, 20 min; smFRET: room temperature, 50 mM L-Arg, 20 mM DTT; details: protein: recombinant; tags: N-terminal His6-HRV3C tag removed; GPG remains at the N-terminus; chain copies: 4; label: AlexaFluor 488 / AlexaFluor 594; blunt
ComK [7] = biological target: T1, ComK; assay: smFRET; Hill n 3.44 ± 0.27; unit inferred; EMSA: 20 mM Tris pH 7.0, 50 mM L-Arg, 5 mM MgCl2, 150 mM KCl, 10 mM DTT, 0.001% Tween-20, 25 nM DNA, 20 min; smFRET: room temperature, 50 mM L-Arg, 20 mM DTT; details: protein: recombinant; tags: N-terminal His6-HRV3C tag removed; GPG remains at the N-terminus; chain copies: 4; label: AlexaFluor 488 / AlexaFluor 594; blunt
ΔCys ComK = biological target: T2, ΔCys ComK (Bacillus subtilis, UniProt P40396 1-192, C31A;C39A;C55A;C102A); assay: smFRET; 30 pM DNA, 100 nM protein; EMSA: 20 mM Tris pH 7.0, 50 mM L-Arg, 5 mM MgCl2, 150 mM KCl, 10 mM DTT, 0.001% Tween-20, 25 nM DNA, 20 min; smFRET: room temperature, 50 mM L-Arg, 20 mM DTT; details: protein: recombinant; chain copies: 4; label: AlexaFluor 488 / AlexaFluor 594; blunt
T2 sequence: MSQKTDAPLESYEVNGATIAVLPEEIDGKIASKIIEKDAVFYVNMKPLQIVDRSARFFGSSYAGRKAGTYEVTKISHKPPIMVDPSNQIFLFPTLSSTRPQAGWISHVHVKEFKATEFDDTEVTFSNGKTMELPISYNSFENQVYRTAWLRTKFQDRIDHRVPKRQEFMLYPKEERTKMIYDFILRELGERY

ComK [8] = biological target: T1, ComK; assay: smFRET; Hill n 2.93 ± 0.28; unit inferred; EMSA: 20 mM Tris pH 7.0, 50 mM L-Arg, 5 mM MgCl2, 150 mM KCl, 10 mM DTT, 0.001% Tween-20, 25 nM DNA, 20 min; smFRET: room temperature, 50 mM L-Arg, 20 mM DTT; details: protein: recombinant; tags: N-terminal His6-HRV3C tag removed; GPG remains at the N-terminus; chain copies: 4; label: AlexaFluor 488 / AlexaFluor 594; blunt ends, internal mismatches in spacer
ComK [9] = biological target: T1, ComK; assay: smFRET; Hill n 3.05 ± 0.08; unit inferred; EMSA: 20 mM Tris pH 7.0, 50 mM L-Arg, 5 mM MgCl2, 150 mM KCl, 10 mM DTT, 0.001% Tween-20, 25 nM DNA, 20 min; smFRET: room temperature, 50 mM L-Arg, 20 mM DTT; details: protein: recombinant; tags: N-terminal His6-HRV3C tag removed; GPG remains at the N-terminus; chain copies: 4; label: AlexaFluor 488 / AlexaFluor 594; blunt

comG: isolated box 1 labelled
K half (ComK [1]; Hill n 1.76 ± 0.02, unit inferred): 73 nM

comG: isolated box 2 labelled
K half (ComK [1]; Hill n 1.59 ± 0.09, unit inferred): 48 nM

B1: comK: box 1 labelled (dsDNA)
DNA 1: CTTATGAAAGTAAAATCGGTTTATTACTAGTCATTTAGTACCATTAAATATCATTAAAAGATGATTTTATCTTAAATG
DNA 2: CATTTAAGATAAAATCATCTTTTAATGATATTTAATGGTACTAAATGACTAGTAATAAACCGATTTTACTTTCATAAG
modifications: amino-C6-dT/dA at dye sites
apparent K (half saturation) (ComK [2]): 21 ± 2 nM

B2: addAB unlabelled (dsDNA)
DNA 1: GATGTGCGGAGATAATCAGCTTTTTATATGTGAAAAGGCCGTTTTTACCAATAGATC
DNA 2: GATCTATTGGTAAAAACGGCCTTTTCACATATAAAAAGCTGATTATCTCCGCACATC
binding result (ComK [3]): binds

B3: addAB1: box 1 labelled (dsDNA)
DNA 1: B2 DNA 1
DNA 2: B2 DNA 2
modifications: amino-C6-dT/dA at dye sites
apparent K (half saturation) (ComK [4]): 25 ± 6 nM

B4: comG: box 1 labelled (dsDNA)
DNA 1: CAGTTGAAAGTCTTTTTTCTTGCCAGAAAGAATTGGTTTTTCAGCATATAACATCTCACAAAATCACGTTTTCCCTGTTTGATTACCTTTTCT
DNA 2: AGAAAAGGTAATCAAACAGGGAAAACGTGATTTTGTGAGATGTTATATGCTGAAAAACCAATTCTTTCTGGCAAGAAAAAAGACTTTCAACTG
modifications: amino-C6-dT/dA at dye sites
apparent K (half saturation) (ComK [5]): 15 ± 1 nM

B5: comG GC-55%: box 1 labelled (dsDNA)
DNA 1: B4 DNA 1 with T47G, A48C, T54G
DNA 2: B4 DNA 2 with A40C, T46G, A47C
modifications: amino-C6-dT/dA at dye sites
apparent K (half saturation) (ComK [6]): 16 ± 1 nM

B6: comG: box 2 labelled (dsDNA)
DNA 1: B4 DNA 1
DNA 2: B4 DNA 2
modifications: amino-C6-dT/dA at dye sites
apparent K (half saturation) (ComK [7]): 16 ± 1 nM
binding result (ΔCys ComK): no binding

B7: comG Mismatch: box 1 labelled (dsDNA)
DNA 1: B4 DNA 1 with T47A, A48T, T49A, A50T
DNA 2: B4 DNA 2
modifications: amino-C6-dT/dA at dye sites
apparent K (half saturation) (ComK [8]): 14 ± 1 nM

B8: comG unlabelled (dsDNA)
DNA 1: B4 DNA 1
DNA 2: B4 DNA 2
binding result (ComK [3]): binds

B9: comG GC-72%: box 1 labelled (dsDNA)
DNA 1: B4 DNA 1 with A43G, A46C, T47G, A48C, A53G, T54G
DNA 2: B4 DNA 2 with A40C, T41C, T46G, A47C, T48G, T51C
modifications: amino-C6-dT/dA at dye sites
apparent K (half saturation) (ComK [9]): 17 ± 1 nM
